The supplement of paper PMC7125110
± gives the standard error. Fewer inactive variants are shown than the library holds.

B1: glmS ribozyme (parent)
chain: AUAAAAGCGCCAGAACUACAGAAAUGUAGUUGACGAGGAGGAGGUUUAUCGAAUUUUCGGCGGAUGCCUCCAAA

Experiments:
Conditions in all cases: with glucosamine-6-phosphate
[1] = variants of: B1; assay: self-cleavage kobs at 40 uM GlcN6P; higher = faster cleavage; RNA array
Method in brief: (§1)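 Sequenced MiSeq chips were the platform: E. coli RNA polymerase transcribed barcoded ribozyme variants on them in situ, and a hybridised Cy3 probe tracked these at 37 °C. After glucosamine-6-phosphate (40 μM to 10 mM) in HEPES/KCl/Mg(OAc)2 buffer was flowed in, tiles were imaged over ~14 h. Signals normalised to baseline and to non-cleaving reference variants were reduced to per-tile medians and fit to one- or two-exponential decays to obtain kobs. kcat and KM were derived through weighted Michaelis–Menten fits across concentrations.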

[2] = variants of: B1; assay: self-cleavage kobs at 160 uM GlcN6P; higher = faster cleavage; RNA array
Method in brief: as §1

[3] = variants of: B1; assay: self-cleavage kobs at 640 uM GlcN6P; higher = faster cleavage; RNA array
Method in brief: as §1

[4] = variants of: B1; assay: self-cleavage kobs at 2500 uM GlcN6P; higher = faster cleavage; RNA array
Method in brief: as §1

[5] = variants of: B1; assay: self-cleavage kobs at 10000 uM GlcN6P; higher = faster cleavage; RNA array
Method in brief: as §1

| Variant | self-cleavage kobs at 40 uM GlcN6P [1] [s⁻¹] | self-cleavage kobs at 160 uM GlcN6P [2] [s⁻¹] | self-cleavage kobs at 640 uM GlcN6P [3] [s⁻¹] | self-cleavage kobs at 2500 uM GlcN6P [4] [s⁻¹] | self-cleavage kobs at 10000 uM GlcN6P [5] [s⁻¹] |
| --- | --- | --- | --- | --- | --- |
| AUAAAAGCGCCAGAACUACAGAAAUGUAGUUGAUGAGGAGGAGGAUUAUCGAAUUUUCGGCGGAUGCCUCCAAA [C34U U45A] | < 1e-05 | < 1e-05 | < 1e-05 | < 1e-05 | < 1e-05 |
| AUAAAAGCGCCAGAACUACAGAAAUGUAGUUGAUGACGAGGAGGUUUAUCGAGUUUUCGGCGGAUGCCUCCAAA [C34U G37C A53G] | < 1e-05 | – | – | – | – |
| AUAAAAGCGCCAGAACUACAGAAAUGUAGUUGAGGAGGAGGAGGUUUAUUGAAUUUUCGGCGGAUGCCUCCAAA [C34G C50U] | < 1e-05 | – | < 1e-05 | – | < 1e-05 |
| AUAAAAGCGCCAGAACUACAGAAAUGUAGUUGAGGAGGAGGAGUUUUAUCGAAUUUUCGGCGGAUGCCUCCAAA [C34G G44U] | < 1e-05 | < 1e-05 | < 1e-05 | – | < 1e-05 |
| AUAAAAGCGCCAGAACUACAGAAAUGUAGUUGACAAGGAGGAGGUUUCUCGAAUUUUCGGCGGAUGCCUCCAAA [G35A A48C] | < 1e-05 | < 1e-05 | < 1e-05 | < 1e-05 | < 1e-05 |
| AUAAAAGCGCCAGAACUACAGAAAUGUAGUUGAUGAGGAAGAGGUUUAUCGAAUUUUCGGCGGAUGCCUCCAAA [C34U G40A] | < 1e-05 | – | – | < 1e-05 | < 1e-05 |
| AUAAAAGCGCCAGAACUACAGAAAUGUAGUUGAGGAGGAAGAGGUUUAUCGAAUGUUCGGCGGAUGCCUCCAAA [C34G G40A U55G] | < 1e-05 | – | – | – | – |
| AUAAAAGCGCCAGAACUACAGAAAUGUAGUUGAUGAGGAGGCGGUUUAUCGAAUUUUCGGCGGAUGCCUCCAAA [C34U A42C] | < 1e-05 | – | < 1e-05 | < 1e-05 | < 1e-05 |
| AUAAAAGCGCCAGAACUACAGAAAUGUAGUUGAUGAGGAGGAGGUUUAUCGAAUUUUCGGCGGCUGCCUCCAAA [C34U A64C] | < 1e-05 | < 1e-05 | – | – | < 1e-05 |
| AUAAAAGCGCCAGAACUACAGAAAUGUAGUUGAGGAGAAGGAGGUUUAUCGAAUUUUUGGCGGAUGCCUCCAAA [C34G G38A C58U] | < 1e-05 | – | – | – | – |
| AUAAAAGCGCCAGAACUACAGAAAUGUAGUUGAUGAGUAGGAGGUUUAUCGAAUUUUCGGCGGAUGCCUCCAAA [C34U G38U] | < 1e-05 | < 1e-05 | < 1e-05 | – | < 1e-05 |
| AUAAAAGCGCCAGAACUACAGAAAUGUAGUUGAGGAGGAGGAGGUUUAUCGAAGUUUCGGCGGAUGCCUCCAAA [C34G U54G] | < 1e-05 | < 1e-05 | < 1e-05 | – | < 1e-05 |
| AUAAAAGCGCCAGAACUACAGAAAUGUAGUUGAUGAGGAGGAGGUUUAUCGAAUUUUCUGCGGAUGCCUCCAAA [C34U G59U] | < 1e-05 | < 1e-05 | < 1e-05 | < 1e-05 | < 1e-05 |
| AUAAAAGCGCCAGAACUACAGAAAUGUAGUUGAUGAGGAGGAGGUUUAUCGAAUUUUCCGCGGAUGCCUCCAAA [C34U G59C] | < 1e-05 | < 1e-05 | < 1e-05 | < 1e-05 | < 1e-05 |
| AUAAAAGCGCCAGAACUACAGAAAUGUAGUUGAUGAGGAGGAGGUUUAUCGAAUUUUGGGCGGAGGCCUACAAA [C34U C58G U65G C70A] | 0.000236 ± 8.2e-05 | – | 0.000187 ± 7.4e-05 | – | 0.000376 ± 0.00015 |
| AUAAAAGCGCCAGAACUACAGAAAUGUAGUUGAGGAGGAGGAGGUUUAUCGAUUUUUCGGCGUGUGCCUCCAAA [C34G A53U G63U A64G] | < 1e-05 | – | – | – | < 1e-05 |
| AUAAAAGCGCCAGAACUACAGAAAUGUAGUUGACAAGGAGGGGGUUUAUCGAAUUUUCGGCGGAUGCCUCCAAA [G35A A42G] | < 1e-05 | < 1e-05 | < 1e-05 | < 1e-05 | < 1e-05 |
| AUAAAAGCGCCAGAACUACAGAAAUGUAGUUGAUGAGGAGGAGGUUUAUCGAAUUUUCGGAGGAUGGCUCCAAA [C34U C61A C67G] | 0.00044 ± 0.00014 | – | 0.000318 ± 0.00013 | – | – |
| AUAAAAGCGCCAGAACUACAGAAAUGUAGUUGAUGAGGACGAGGUUUAUCUAAUUUUCGGAGUAUGCCUCCAAA [C34U G40C G51U C61A G63U] | < 1e-05 | – | – | – | – |
| AUAAAAGCGCCAGAACUACAGAAAUGUAGUUGAGGAGGACGAGGUUUAUCGAAUUUUCGGCGGAUGCCUCCAAA [C34G G40C] | < 1e-05 | – | < 1e-05 | – | < 1e-05 |
| AUAAAAGCGCCAGAACUACAGAAAUGUAGUUGAUGAGGAGGAGGUUUAUCGAAUUUUCGGCGGAAGGCUCCAAA [C34U U65A C67G] | 0.000176 ± 7.1e-05 | – | – | – | – |
| AUAAAAGCGCCAGAACUACAGAAAUGUAGUUGAUGAGGAGGAGGUUUAUCGAAUGUUCGGCGGAUGCCUCUAAA [C34U U55G C71U] | < 1e-05 | – | – | – | – |
| AUAAAAGCGCCAGAACUACAGAAAUGUAGUUGAGGAGGAGGAGGUUUAUCGAAUUUUCGGCAGAUGCCUCCAAA [C34G G62A] | < 1e-05 | – | < 1e-05 | < 1e-05 | < 1e-05 |
| AUAAAAGCGCCAGAACUACAGAAAUGUAGUUGAGGAGGAGGAGGUUUAUCGAAUUUUCGGCUGAUGCCUCCAAA [C34G G62U] | < 1e-05 | – | – | < 1e-05 | < 1e-05 |
| AUAAAAGCGCCAGAACUACAGAAAUGUAGUUGACAUUGGGGAGGUUUAUCGAACUUUCGGCGGAUGCUUCCAAA [G35A A36U G37U A39G U54C C68U] | 5.13e-05 ± 2.2e-05 | – | – | – | – |
| AUAAAAGCGCCAGAACUACAGAAAUGUAGUUGAUGAGGAGGAGGUUUAUCGAAAUUUCGGCGGAUGCCUCCAAA [C34U U54A] | < 1e-05 | – | < 1e-05 | – | < 1e-05 |
